Data from patent publication US20160369011A1.

T1: human TEM1 (endosialin/CD248) (human) (UniProt Q9HCU0)
T1 sequence (chain, biotinylated in the SPR assay of Table 6 (sites not stated)): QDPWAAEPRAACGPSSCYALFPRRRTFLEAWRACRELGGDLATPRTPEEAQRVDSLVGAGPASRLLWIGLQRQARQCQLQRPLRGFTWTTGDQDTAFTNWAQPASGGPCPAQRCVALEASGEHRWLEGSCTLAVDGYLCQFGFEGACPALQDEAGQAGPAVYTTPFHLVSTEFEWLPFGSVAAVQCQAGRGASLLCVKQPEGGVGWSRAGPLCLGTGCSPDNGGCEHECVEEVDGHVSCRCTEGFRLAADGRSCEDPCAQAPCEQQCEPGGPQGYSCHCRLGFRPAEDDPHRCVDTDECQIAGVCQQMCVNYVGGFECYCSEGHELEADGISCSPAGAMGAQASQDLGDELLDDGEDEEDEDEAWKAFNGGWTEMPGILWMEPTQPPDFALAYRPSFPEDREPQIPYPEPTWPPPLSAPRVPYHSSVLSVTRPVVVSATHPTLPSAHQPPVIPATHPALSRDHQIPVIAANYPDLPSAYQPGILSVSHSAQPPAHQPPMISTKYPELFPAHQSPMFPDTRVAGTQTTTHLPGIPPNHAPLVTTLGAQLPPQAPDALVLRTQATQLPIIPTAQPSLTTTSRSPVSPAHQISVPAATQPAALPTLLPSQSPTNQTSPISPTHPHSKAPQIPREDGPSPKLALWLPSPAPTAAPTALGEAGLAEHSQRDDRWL

B1: 1-55-2 (rabbit anti-hTEM1 mAb) (antibody, V domains shown)
VH: QSVEESGGDLVKPEGSLTLTCTASGFSFSSSYWGCWVRQAPGKGPEWIACIYGGSSGTTYYPNWAKGRFSISKTSSTTVTLQMASLTAADTATYFCARVTNGGDWDFKLWGPGTLVTISS
VL: ELVMTQTPASVEVAVGGTVTIKCQASQSINTYLAWYQQKPGQPPKLLIYRASTLASGVPSRFKGSGSGTEFTLTISDLECADAATYYCQQSVRVIDVDNTFGGGTEVVVK
B2: xi1-55-2 (rabbit/human chimerized 1-55-2 mAb) (antibody, human IgG1, kappa, V domains shown)
VH: B1 VH
VL: ELVMTQTPASVEVAVGGTVTIKCQASQSINTYLAWYQQKPGQPPKLLIYRASTLASGVPSRFKGSGSGTEFTLTISDLECADAATYYCQQSVRVIDVDNTFGGGTEVVVKR

Target: T1, human TEM1 (endosialin/CD248) (human)
Test: SPR (BIAcore), biotin-hTEM1 captured on CAP chip, antibody 0-50 nM as analyte

Binder | Kd [nM] | koff [s⁻¹] | kon [M⁻¹ s⁻¹]
B1 | 0.015 | 5.8e-05 | 3.7e+06
B2 | 0.046 | 7.1e-05 | 1.5e+06
